Ki data for one molecule are collected here from US20050250690A1.

Broadly, the Ki is the dissociation constant of the complex between target and ligand, obtained from inhibition or displacement. A high value points to lower affinity.

The target in the assay is OB-R (leptin receptor) expressed by rabbit endometrial cells (rEEC and rESC) (rabbit). In words: competition with 125I-human leptin for OB-R in rabbit endometrial cell lysates (rEEC and rESC), PEG precipitation.

SRNVIQISNDLENLRDLLHVLAFSKS [LPA-2 (leptin peptide antagonist 2; residues 70-95 of helix III of the human leptin molecule)] came in with an inhibition constant Ki of 0.06 nM. This counts as picomolar.
